Test results taken from patent publication US8642555.

Test system: albumin-bound form of EMC-Arg-Ser-Ser-Tyr-Tyr-Ser-Leu-PABC-DOXO (6)

Substance: prostate-specific antigen (PSA)
- PSA-mediated cleavage monitored by HPLC (enzyme activity): cleaved efficiently within a few hours
